The target in the series is T1, PUF4 RNA-binding domain (Saccharomyces cerevisiae, UniProt P25339 537-888).
T1 sequence: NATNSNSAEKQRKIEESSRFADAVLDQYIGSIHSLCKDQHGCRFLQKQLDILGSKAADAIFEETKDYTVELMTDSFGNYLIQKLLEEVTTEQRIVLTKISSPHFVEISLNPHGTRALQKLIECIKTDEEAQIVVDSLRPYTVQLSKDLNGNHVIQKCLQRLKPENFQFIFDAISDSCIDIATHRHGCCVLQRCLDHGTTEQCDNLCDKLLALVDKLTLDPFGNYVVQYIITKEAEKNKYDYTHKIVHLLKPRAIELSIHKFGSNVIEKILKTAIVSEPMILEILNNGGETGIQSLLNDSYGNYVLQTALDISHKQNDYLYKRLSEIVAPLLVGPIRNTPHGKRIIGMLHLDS
The series is described as follows: Mg; RNA-MaP; 20 mM Na-HEPES pH 7.4, 30 mM KOAc, 0.75 mM MgCl2, 0.1% Tween-20, 5% glycerol, 0.1 mg/mL BSA, 2 mM DTT; 25 C; 0.0125-409.6 nM protein. The conditions noted are these: tags: N-His6-TEV cleaved; C-SNAP kept, Cy3B-labelled; label: tethered on chip by stalled RNA polymerase.

B1: Id_ii_S4_P5E.2_K5.1_C5.2_[C-2T]_[T-1A]_H5.1_A5.1_F5.1_T5.2_[T11A] (ssRNA)
RNA: UUUGACAACUGAUCGUUCUUUCUUAUGUAUUAUUAAAUUCUUUCUCGAUCAGUUGUCUUU
In turn, B1 yielded a Kd of 10.7 nM. That is a double-digit nanomolar value.

B2: Id_ii_S4_P5E.3_K5.2_C5.2_[C-2G]_H5.2_A5.1_F5.1_T5.2_[T11C]_[A12G] (ssRNA)
RNA: UUUGACAACUGAUCGUUCUUUCUGUUAUAUUAUUACGUUCUUUCUCGAUCAGUUGUCUUU
In the case of B2, the Kd is 176 nM.

B3: Id_ii_S4_P5E.2_K5.1_C5.2_[C-2T]_[T-1C]_H5.1_A5.1_F5.1_T5.2_[T11A]_[A12C] (ssRNA)
RNA: UUUGACAACUGAUCGUUCUUUCUUCUGUAUUAUUAACUUCUUUCUCGAUCAGUUGUCUUU
In the case of B3, the Kd worked out at 2.92 nM.

B4: Id_ii_S4_P5E.2_K5.1_C5.2_[C-2T]_[T-1C]_H5.1_A5.1_F5.1_T5.2_[T11A]_[A12G] (ssRNA)
RNA: UUUGACAACUGAUCGUUCUUUCUUCUGUAUUAUUAAGUUCUUUCUCGAUCAGUUGUCUUU
Regarding B4, the affinity, expressed as Kd, was 34.5 nM.

B5: Id_ii_S4_P5E.2_K5.1_C5.2_[T-1G]_H5.1_A5.1_F5.1_T5.2_[T11G]_[A12C] (ssRNA)
RNA: UUUGACAACUGAUCGUUCUUUCUCGUGUAUUAUUAGCUUCUUUCUCGAUCAGUUGUCUUU
The molecule B5 displayed a dissociation constant Kd of 1.94 nM. This Kd lies about 18-fold lower than the previous one.

B6: Id_ii_S4_P5E.2_K5.1_C5.2_[C-2T]_H5.1_A5.1_F5.1_T5.2_[A12C] (ssRNA)
RNA: UUUGACAACUGAUCGUUCUUUCUUUUGUAUUAUUAUCUUCUUUCUCGAUCAGUUGUCUUU
As to B6, the Kd was 2.29 nM.

B7: Id_ii_S4_P5E.3_K5.2_C5.2_[C-2T]_[T-1G]_H5.2_A5.1_F5.1_T5.2_[A12T] (ssRNA)
RNA: UUUGACAACUGAUCGUUCUUUCUUGUAUAUUAUUAUUUUCUUUCUCGAUCAGUUGUCUUU
B7 returned a dissociation constant (Kd) of 0.445 nM.

B8: Id_ii_S4_P5E.3_K5.2_C5.2_[C-2A]_[T-1C]_H5.2_A5.1_F5.1_T5.2_[T11C]_[A12G] (ssRNA)
RNA: UUUGACAACUGAUCGUUCUUUCUACUAUAUUAUUACGUUCUUUCUCGAUCAGUUGUCUUU
On to B8, for which the affinity, expressed as Kd, was 1150 nM.

B9: Id_ii_S4_P5E.2_K5.1_C5.2_[C-2T]_[T-1G]_H5.1_A5.1_F5.1_T5.2_[T11A]_[A12C] (ssRNA)
RNA: UUUGACAACUGAUCGUUCUUUCUUGUGUAUUAUUAACUUCUUUCUCGAUCAGUUGUCUUU
As to B9, the dissociation constant (Kd) came to 3.09 nM.

B10: Id_ii_S4_P5E.2_K5.1_C5.2_[C-2T]_[T-1G]_H5.1_A5.1_F5.1_T5.2_[T11A]_[A12T] (ssRNA)
RNA: UUUGACAACUGAUCGUUCUUUCUUGUGUAUUAUUAAUUUCUUUCUCGAUCAGUUGUCUUU
Molecule B10 had a Kd of 1.56 nM.

B11: Id_ii_S4_P5E.2_K5.1_C5.2_[C-2T]_[T-1A]_H5.1_A5.1_F5.1_T5.2_[T11G]_[A12T] (ssRNA)
RNA: UUUGACAACUGAUCGUUCUUUCUUAUGUAUUAUUAGUUUCUUUCUCGAUCAGUUGUCUUU
In turn, B11 showed a Kd of 4.76 nM. This Kd lies about 3.1-fold higher than the previous one.

B12: Id_ii_S4_P5E.2_K5.1_C5.2_[C-2T]_[T-1G]_H5.1_A5.1_F5.1_T5.2_[T11G]_[A12T] (ssRNA)
RNA: UUUGACAACUGAUCGUUCUUUCUUGUGUAUUAUUAGUUUCUUUCUCGAUCAGUUGUCUUU
With B12, the Kd stood at 1.51 nM.

B13: Id_ii_S4_P5E.2_K5.1_C5.2_[T-1G]_H5.1_A5.1_F5.1_T5.2_[T11G]_[A12T] (ssRNA)
RNA: UUUGACAACUGAUCGUUCUUUCUCGUGUAUUAUUAGUUUCUUUCUCGAUCAGUUGUCUUU
On to B13, for which the Kd was 1.95 nM.

B14: Id_ii_S4_P5E.2_K5.1_C5.2_[C-2T]_H5.1_A5.1_F5.1_T5.2_[T11A]_[A12T] (ssRNA)
RNA: UUUGACAACUGAUCGUUCUUUCUUUUGUAUUAUUAAUUUCUUUCUCGAUCAGUUGUCUUU
The molecule B14 yielded a Kd of 2.21 nM.

B15: Id_ii_S4_P5E.2_K5.1_C5.2_[T-1A]_H5.1_A5.1_F5.1_T5.2_[T11A]_[A12T] (ssRNA)
RNA: UUUGACAACUGAUCGUUCUUUCUCAUGUAUUAUUAAUUUCUUUCUCGAUCAGUUGUCUUU
On to B15, for which the affinity, expressed as Kd, was 3.49 nM.

B16: Id_ii_S4_P5E.3_K5.2_C5.2_[C-2A]_H5.2_A5.1_F5.1_T5.2_[T11C] (ssRNA)
RNA: UUUGACAACUGAUCGUUCUUUCUAUUAUAUUAUUACAUUCUUUCUCGAUCAGUUGUCUUU
Consider B16, for which the Kd worked out at 203 nM.

B17: Id_ii_S4_P5E.3_K5.2_C5.2_[C-2T]_[T-1G]_H5.2_A5.1_F5.1_T5.2_[T11G]_[A12C] (ssRNA)
RNA: UUUGACAACUGAUCGUUCUUUCUUGUAUAUUAUUAGCUUCUUUCUCGAUCAGUUGUCUUU
For the molecule B17, the Kd was determined as 1.12 nM.

B18: Id_ii_S4_P5E.2_K5.1_C5.2_[C-2T]_[T-1G]_H5.1_A5.1_F5.1_T5.2_[A12C] (ssRNA)
RNA: UUUGACAACUGAUCGUUCUUUCUUGUGUAUUAUUAUCUUCUUUCUCGAUCAGUUGUCUUU
The molecule B18 showed a Kd of 1.56 nM.

B19: Id_ii_S4_P5E.3_K5.2_C5.2_[C-2G]_H5.2_A5.1_F5.1_T5.2_[A12T] (ssRNA)
RNA: UUUGACAACUGAUCGUUCUUUCUGUUAUAUUAUUAUUUUCUUUCUCGAUCAGUUGUCUUU
Molecule B19 yielded a Kd of 28.2 nM.

B20: Id_ii_S4_P5E.3_K5.2_C5.2_[C-2T]_[T-1A]_H5.2_A5.1_F5.1_T5.2_[A12T] (ssRNA)
RNA: UUUGACAACUGAUCGUUCUUUCUUAUAUAUUAUUAUUUUCUUUCUCGAUCAGUUGUCUUU
Take B20: the Kd was 23.8 nM.

The molecule UCUCUUUGCAUCAUUAUCUCUU (ssRNA) [Ib_S1_P5E.1_K5.1_C5.1_H5.1_[T3C]_A5.1_[T6C]_F5.1_T5.1] yielded a Kd of 1980 nM. Against the preceding molecule, the Kd is about 83-fold higher.

In the case of UCUCUUUGCAAUAUUAUCUCUU (ssRNA) [Ib_S1_P5E.1_K5.1_C5.1_H5.1_[T3C]_A5.1_[T5A]_F5.1_T5.1], the Kd stood at 1370 nM.

For UCUCUUUGCAUUUUUAUCUCUU (ssRNA) [Ib_S1_P5E.1_K5.1_C5.1_H5.1_[T3C]_A5.1_[A7T]_F5.1_T5.1], the equilibrium dissociation constant (Kd) amounted to 1540 nM.

(Values after publication PMC9352680, “A comprehensive thermodynamic model for RNA binding by the Saccharomyces cerevisiae Pumilio protein PUF4”.)
